# The supplement of paper PMC5998384
# Key:
# HeLa Kyoto [1] = experiment: solubility change mitosis vs G1/S (difference of NP-40 vs SDS log2 ratios) (log2 ratio difference); higher = more soluble in mitosis
# HeLa Kyoto [2] = experiment: solubility in G1/S (NP-40 vs SDS abundance) (log2 ratio); higher = more soluble; settings: cell cycle stage: G1/S
# HeLa Kyoto [3] = experiment: melting temperature (median over replicates), in situ; higher = more thermally stable
# HeLa Kyoto [4] = experiment: thermal stability score vs G1/S (z-score of summed log2 fold changes over temperatures); higher = more thermally stable than in G1/S
# [5] = cell cycle stage: early G1 (4.5 h after nocodazole release)
# 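For melting temperature (median over replicates), in situ in this document: HeLa Kyoto cells synchronized by double thymidine or nocodazole block, proteins quantified by TMT10plex mass spectrometry, three independent biological replicates.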
# 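For solubility change mitosis vs G1/S (difference of NP-40 vs SDS log2 ratios) in this document: synchronized HeLa Kyoto cells (double thymidine block for G1/S, nocodazole release for mitosis), protein amounts in NP-40 versus SDS lysates quantified by mass spectrometry, three biological replicates.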
# 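For solubility in G1/S (NP-40 vs SDS abundance) in this document: HeLa Kyoto cells arrested at G1/S by double thymidine block, proteins quantified by TMT10plex mass spectrometry in mild NP-40 versus SDS extracts, three biological replicates.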
# 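For thermal stability score vs G1/S (z-score of summed log2 fold changes over temperatures) in this document: synchronized HeLa Kyoto cells, proteins quantified by TMT10plex mass spectrometry, three biological replicates, mitosis taken 0.5 h after nocodazole release, G1/S directly after double thymidine block.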
Substance,solubility change mitosis (log2) (HeLa Kyoto [1]),solubility in G1/S (log2) (HeLa Kyoto [2]),melting temperature (HeLa Kyoto [3]; cell cycle stage: G1/S),melting temperature (HeLa Kyoto [3]; cell cycle stage: mitosis),thermal stability score (HeLa Kyoto [4]; [5]),thermal stability score (HeLa Kyoto [4]; cell cycle stage: mitosis)
MAATLLAARGAGPAPAWGPEAFTPDWESREVSTGTTIMAVQFDGGVVLGADSRTTTGSYIANRVTDKLTPIHDRIFCCRSGSAADTQAVADAVTYQLGFHSIELNEPPLVHTAASLFKEMCYRYREDLMAGIIIAGWDPQEGGQVYSVPMGGMMVRQSFAIGGSGSSYIYGYVDATYREGMTKEECLQFTANALALAMERDGSSGGVIRLAAIAESGVERQVLLGDQIPKFAVATLPPA [PSMB6],-0.103,0.119,59 °C,59.6 °C,-1.97,-2.64
MNPAAEAEFNILLATDSYKVTHYKQYPPNTSKVYSYFECREKKTENSKLRKVKYEETVFYGLQYILNKYLKGKVVTKEKIQEAKDVYKEHFQDDVFNEKGWNYILEKYDGHLPIEIKAVPEGFVIPRGNVLFTVENTDPECYWLTNWIETILVQSWYPITVATNSREQKKILAKYLLETSGNLDGLEYKLHDFGYRGVSSQETAGIGASAHLVNFKGTDTVAGLALIKKYYGTKDPVPGYSVPAAEHSTITAWGKDHEKDAFEHIVTQFSSVPVSVVSDSYDIYNACEKIWGEDLRHLIVSRSTQAPLIIRPDSGNPLDTVLKVLEILGKKFPVTENSKGYKLLPPYLRVIQGDGVDINTLQEIVEGMKQKMWSIENIAFGSGGGLLQKLTRDLLNCSFKCSYVVTNGLGINVFKDPVADPNKRSKKGRLSLHRTPAGNFVTLEEGKGDLEEYGQDLLHTVFKNGKVTKSYSFDEIRKNAQLNIELEAAHH [NAMPT],-0.0826,0.264,56.9 °C,55.9 °C,-1.65,-1.17
MNRSHRHGAGSGCLGTMEVKSKFGAEFRRFSLERSKPGKFEEFYGLLQHVHKIPNVDVLVGYADIHGDLLPINNDDNYHKAVSTANPLLRIFIQKKEEADYSAFGTDTLIKKKNVLTNVLRPDNHRKKPHIVISMPQDFRPVSSIIDVDILPETHRRVRLYKYGTEKPLGFYIRDGSSVRVTPHGLEKVPGIFISRLVPGGLAQSTGLLAVNDEVLEVNGIEVSGKSLDQVTDMMIANSRNLIITVRPANQRNNVVRNSRTSGSSGQSTDNSLLGYPQQIEPSFEPEDEDSEEDDIIIEDNGVPQQIPKAVPNTESLESLTQIELSFESGQNGFIPSNEVSLAAIASSSNTEFETHAPDQKLLEEDGTIITL [PARD6B],0.0857,-0.226,51 °C,,-0.366,-0.685
MDNYADLSDTELTTLLRRYNIPHGPVVGSTRRLYEKKIFEYETQRRRLSPPSSSAASSYSFSDLNSTRGDADMYDLPKKEDALLYQSKGYNDDYYEESYFTTRTYGEPESAGPSRAVRQSVTSFPDADAFHHQVHDDDLLSSSEEECKDRERPMYGRDSAYQSITHYRPVSASRSSLDLSYYPTSSSTSFMSSSSSSSSWLTRRAIRPENRAPGAGLGQDRQVPLWGQLLLFLVFVIVLFFIYHFMQAEEGNPF [EMD],0.383,-0.273,52.4 °C,51.7 °C,-0.609,-0.468
MGGGWWWARAARLARLRFRRSLLPPQRPRSGGARGSFAPGHGPRAGASPPPVSELDRADAWLLRKAHETAFLSWFRNGLLASGIGVISFMQSDMGREAAYGFFLLGGLCVVWGSASYAVGLAALRGPMQLTLGGAAVGAGAVLAASLLWACAVGLYMGQLELDVELVPEDDGTASAEGPDEAGRPPPE [TMEM160],-0.0483,-0.112,54.2 °C,56.9 °C,-1.62,-1.47
MDHYDSQQTNDYMQPEEDWDRDLLLDPAWEKQQRKTFTAWCNSHLRKAGTQIENIEEDFRDGLKLMLLLEVISGERLAKPERGKMRVHKISNVNKALDFIASKGVKLVSIGAEEIVDGNVKMTLGMIWTIILRFAIQDISVEETSAKEGLLLWCQRKTAPYKNVNIQNFHISWKDGLGFCALIHRHRPELIDYGKLRKDDPLTNLNTAFDVAEKYLDIPKMLDAEDIVGTARPDEKAIMTYVSSFYHAFSGAQKAETAANRICKVLAVNQENEQLMEDYEKLASDLLEWIRRTIPWLENRVPENTMHAMQQKLEDFRDYRRLHKPPKVQEKCQLEINFNTLQTKLRLSNRPAFMPSEGRMVSDINNAWGCLEQVEKGYEEWLLNEIRRLERLDHLAEKFRQKASIHEAWTDGKEAMLRQKDYETATLSEIKALLKKHEAFESDLAAHQDRVEQIAAIAQELNELDYYDSPSVNARCQKICDQWDNLGALTQKRREALERTEKLLETIDQLYLEYAKRAAPFNNWMEGAMEDLQDTFIVHTIEEIQGLTTAHEQFKATLPDADKERLAILGIHNEVSKIVQTYHVNMAGTNPYTTITPQEINGKWDHVRQLVPRRDQALTEEHARQQHNERLRKQFGAQANVIGPWIQTKMEEIGRISIEMHGTLEDQLSHLRQYEKSIVNYKPKIDQLEGDHQLIQEALIFDNKHTNYTMEHIRVGWEQLLTTIARTINEVENQILTRDAKGISQEQMNEFRASFNHFDRDHSGTLGPEEFKACLISLGYDIGNDPQGEAEFARIMSIVDPNRLGVVTFQAFIDFMSRETADTDTADQVMASFKILAGDKNYITMDELRRELPPDQAEYCIARMAPYTGPDSVPGALDYMSFSTALYGESDL [ACTN1],0.09,-0.1,58.3 °C,55.9 °C,-0.623,-1.86
MIHSLFLINCSGDIFLEKHWKSVVSQSVCDYFFEAQEKAADVENVPPVISTPHHYLISIYRDKLFFVSVIQTEVPPLFVIEFLHRVADTFQDYFGECSEAAIKDNVVIVYELLEEMLDNGFPLATESNILKELIKPPTILRSVVNSITGSSNVGDTLPTGQLSNIPWRRAGVKYTNNEAYFDVVEEIDAIIDKSGSTVFAEIQGVIDACIKLSGMPDLSLSFMNPRLLDDVSFHPCIRFKRWESERVLSFIPPDGNFRLISYRVSSQNLVAIPVYVKHSISFKENSSCGRFDITIGPKQNMGKTIEGITVTVHMPKVVLNMNLTPTQGSYTFDPVTKVLTWDVGKITPQKLPSLKGLVNLQSGAPKPEENPSLNIQFKIQQLAISGLKVNRLDMYGEKYKPFKGVKYVTKAGKFQVRT [AP3M1],-0.0783,-0.0152,50.8 °C,50.1 °C,0.811,0.722
MELTIFILRLAIYILTFPLYLLNFLGLWSWICKKWFPYFLVRFTVIYNEQMASKKRELFSNLQEFAGPSGKLSLLEVGCGTGANFKFYPPGCRVTCIDPNPNFEKFLIKSIAENRHLQFERFVVAAGENMHQVADGSVDVVVCTLVLCSVKNQERILREVCRVLRPGGAFYFMEHVAAECSTWNYFWQQVLDPAWHLLFDGCNLTRESWKALERASFSKLKLQHIQAPLSWELVRPHIYGYAVK [METTL7A],-0.0939,-0.294,57.6 °C,56.8 °C,0.77,-0.471
MVDLTQVMDDEVFMAFASYATIILSKMMLMSTATAFYRLTRKVFANPEDCVAFGKGENAKKYLRTDDRVERVRRAHLNDLENIIPFLGIGLLYSLSGPDPSTAILHFRLFVGARIYHTIAYLTPLPQPNRALSFFVGYGVTLSMAYRLLKSKLYL [MGST1],-0.17,-0.321,56.8 °C,58 °C,0.0202,-1.77
MEMGRRIHLELRNRTPSDVKELVLDNSRSNEGKLEGLTDEFEELEFLSTINVGLTSIANLPKLNKLKKLELSDNRVSGGLEVLAEKCPNLTHLNLSGNKIKDLSTIEPLKKLENLKSLDLFNCEVTNLNDYRENVFKLLPQLTYLDGYDRDDKEAPDSDAEGYVEGLDDEEEDEDEEEYDEDAQVVEDEEDEDEEEEGEEEDVSGEEEEDEEGYNDGEVDDEEDEEELGEEERGQKRKREPEDEGEDDD [ANP32A],0.466,-0.297,52.3 °C,53.2 °C,0.819,2.54
MAALKSWLSRSVTSFFRYRQCLCVPVVANFKKRCFSELIRPWHKTVTIGFGVTLCAVPIAQKSEPHSLSSEALMRRAVSLVTDSTSTFLSQTTYALIEAITEYTKAVYTLTSLYRQYTSLLGKMNSEEEDEVWQVIIGARAEMTSKHQEYLKLETTWMTAVGLSEMAAEAAYQTGADQASITARNHIQLVKLQVEEVHQLSRKAETKLAEAQIEELRQKTQEEGEERAESEQEAYLRED [DIABLO],0.345,-0.173,54.9 °C,53.3 °C,-0.685,-1.02
MATAATSPALKRLDLRDPAALFETHGAEEIRGLERQVRAEIEHKKEELRQMVGERYRDLIEAADTIGQMRRCAVGLVDAVKATDQYCARLRQAGSAAPRPPRAQQPQQPSQEKFYSMAAQIKLLLEIPEKIWSSMEASQCLHATQLYLLCCHLHSLLQLDSSSSRYSPVLSRFPILIRQVAAASHFRSTILHESKMLLKCQGVSDQAVAEALCSIMLLEESSPRQALTDFLLARKATIQKLLNQPHHGAGIKAQICSLVELLATTLKQAHALFYTLPEGLLPDPALPCGLLFSTLETITGQHPAGKGTGVLQEEMKLCSWFKHLPASIVEFQPTLRTLAHPISQEYLKDTLQKWIHMCNEDIKNGITNLLMYVKSMKGLAGIRDAMWELLTNESTNHSWDVLCRRLLEKPLLFWEDMMQQLFLDRLQTLTKEGFDSISSSSKELLVSALQELESSTSNSPSNKHIHFEYNMSLFLWSESPNDLPSDAAWVSVANRGQFASSGLSMKAQAISPCVQNFCSALDSKLKVKLDDLLAYLPSDDSSLPKDVSPTQAKSSAFDRYADAGTVQEMLRTQSVACIKHIVDCIRAELQSIEEGVQGQQDALNSAKLHSVLFMARLCQSLGELCPHLKQCILGKSESSEKPAREFRALRKQGKVKTQEIIPTQAKWQEVKEVLLQQSVMGYQVWSSAVVKVLIHGFTQSLLLDDAGSVLATATSWDELEIQEEAESGSSVTSKIRLPAQPSWYVQSFLFSLCQEINRVGGHALPKVTLQEMLKSCMVQVVAAYEKLSEEKQIKKEGAFPVTQNRALQLLYDLRYLNIVLTAKGDEVKSGRSKPDSRIEKVTDHLEALIDPFDLDVFTPHLNSNLHRLVQRTSVLFGLVTGTENQLAPRSSTFNSQEPHNILPLASSQIRFGLLPLSMTSTRKAKSTRNIETKAQVVPPARSTAGDPTVPGSLFRQLVSEEDNTSAPSLFKLGWLSSMTK [COG1],0.0588,-0.122,49.8 °C,49.4 °C,-0.0852,0.918
USP24,-0.155,-0.205,51.4 °C,50.5 °C,0.0834,-0.634
MWLEILLTSVLGFAIYWFISRDKEETLPLEDGWWGPGTRSAAREDDSIRPFKVETSDEEIHDLHQRIDKFRFTPPLEDSCFHYGFNSNYLKKVISYWRNEFDWKKQVEILNRYPHFKTKIEGLDIHFIHVKPPQLPAGHTPKPLLMVHGWPGSFYEFYKIIPLLTDPKNHGLSDEHVFEVICPSIPGYGFSEASSKKGFNSVATARIFYKLMLRLGFQEFYIQGGDWGSLICTNMAQLVPSHVKGLHLNMALVLSNFSTLTLLLGQRFGRFLGLTERDVELLYPVKEKVFYSLMRESGYMHIQCTKPDTVGSALNDSPVGLAAYILEKFSTWTNTEFRYLEDGGLERKFSLDDLLTNVMLYWTTGTIISSQRFYKENLGQGWMTQKHERMKVYVPTGFSAFPFELLHTPEKWVRFKYPKLISYSYMVRGGHFAAFEEPELLAQDIRKFLSVLERQ [EPHX1],-0.197,-0.336,57.9 °C,58.1 °C,-3.88,-2.14
MPGGLLLGDVAPNFEANTTVGRIRFHDFLGDSWGILFSHPRDFTPVCTTELGRAAKLAPEFAKRNVKLIALSIDSVEDHLAWSKDINAYNCEEPTEKLPFPIIDDRNRELAILLGMLDPAEKDEKGMPVTARVVFVFGPDKKLKLSILYPATTGRNFDEILRVVISLQLTAEKRVATPVDWKDGDSVMVLPTIPEEEAKKLFPKGVFTKELPSGKKYLRYTPQP [PRDX6],0.118,0.444,53.9 °C,54.5 °C,-1.5,-3.41
